Measurements as given in the supplement of paper PMC9112550, “Optimization of the antimicrobial peptide Bac7 by deep mutational scanning” (BMC Biology, 2022).

system: Escherichia coli TOP10; test: shrunken log2 fold change of peptide-encoding DNA abundance (4.5 h post-induction vs induction); higher = less antimicrobial activity (less host growth inhibition); conditions: time post-induction: 4.5 h; library: site-saturation at positions 5, 18, 19, 20
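Note: peptides expressed intracellularly from a pBAD plasmid library in pooled LB shake-flask culture, induced with 0.3% L-arabinose, DNA abundance read by NGS, three biological replicates, DESeq2 with apeglm shrinkage.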

| Sequence | shrunken log2 fold change |
| --- | --- |
| RRIRSRPPRLPRPRPRPNWTPRP | -0.000246 |
| RRIRVRPPRLPRPRPRPHNCPRP | -0.0364 |
| RRIRGRPPRLPRPRPRPHGSPRP | -0.0658 |
| RRIRGRPPRLPRPRPRPYFVPRP | 0.0122 |
| RRIRGRPPRLPRPRPRPGHGPRP | 0.323 |
| RRIRARPPRLPRPRPRPQDWPRP | 0.556 |
| RRIRTRPPRLPRPRPRPHWEPRP | -0.171 |
| RRIRYRPPRLPRPRPRPYCKPRP | -1.32 |
| RRIRGRPPRLPRPRPRPVGFPRP | 0.984 |
| RRIRLRPPRLPRPRPRPKFNPRP | -0.437 |
| RRIRERPPRLPRPRPRPNKGPRP | -0.164 |
| RRIRMRPPRLPRPRPRPVAGPRP | 1.31 |
| RRIRDRPPRLPRPRPRPPSDPRP | 0.251 |
| RRIRARPPRLPRPRPRPTQWPRP | 0.457 |
| RRIRKRPPRLPRPRPRPLIAPRP | 0.456 |
| RRIRIRPPRLPRPRPRPKTAPRP | -0.143 |
| RRIRERPPRLPRPRPRPVISPRP | -0.145 |
| RRIRIRPPRLPRPRPRPHEDPRP | -0.182 |
| RRIRGRPPRLPRPRPRPHVRPRP | 0.427 |
| RRIRMRPPRLPRPRPRPHDQPRP | 0.351 |
| RRIRSRPPRLPRPRPRPNADPRP | 0.113 |
| RRIRTRPPRLPRPRPRPTHFPRP | 0.301 |

| Sequence | shrunken log2 fold change |
| --- | --- |
| RRIRRRPPRLPRPRPRPNYLPRP | 0.305 |
| RRIRVRPPRLPRPRPRPMWNPRP | -0.0504 |
| RRIRSRPPRLPRPRPRPFTVPRP | -0.0157 |
| RRIRPRPPRLPRPRPRPGRAPRP | 0.549 |
| RRIRHRPPRLPRPRPRPVRTPRP | 0.314 |
| RRIRWRPPRLPRPRPRPFIDPRP | -0.046 |
| RRIRDRPPRLPRPRPRPETRPRP | 1.11 |
| RRIRQRPPRLPRPRPRPWWFPRP | -0.0566 |
| RRIRWRPPRLPRPRPRPDEDPRP | 0.299 |
| RRIRFRPPRLPRPRPRPHSSPRP | -0.194 |
| RRIRHRPPRLPRPRPRPNWHPRP | -0.242 |
| RRIRHRPPRLPRPRPRPANHPRP | -0.262 |
| RRIRTRPPRLPRPRPRPGSYPRP | -0.0475 |
| RRIRDRPPRLPRPRPRPRVDPRP | 0.325 |
| RRIRARPPRLPRPRPRPFLIPRP | -0.367 |
| RRIRFRPPRLPRPRPRPGIWPRP | 0.125 |
| RRIRARPPRLPRPRPRPARAPRP | 0.834 |
| RRIRVRPPRLPRPRPRPPSYPRP | 0.00807 |
| RRIRKRPPRLPRPRPRPNCGPRP | 0.0611 |
| RRIRMRPPRLPRPRPRPEYDPRP | 2.81 |
| RRIRMRPPRLPRPRPRPGCYPRP | 0.135 |
| RRIRCRPPRLPRPRPRPVNAPRP | -0.0831 |

| Sequence | shrunken log2 fold change |
| --- | --- |
| RRIRQRPPRLPRPRPRPWKKPRP | -0.000921 |
| RRIRHRPPRLPRPRPRPNNGPRP | 0.0142 |
| RRIRVRPPRLPRPRPRPIMLPRP | -0.122 |
| RRIRQRPPRLPRPRPRPTATPRP | 0.0728 |
| RRIRIRPPRLPRPRPRPYEPPRP | -0.21 |
| RRIRVRPPRLPRPRPRPWRVPRP | 0.435 |
| RRIRKRPPRLPRPRPRPMHHPRP | -0.126 |
| RRIRKRPPRLPRPRPRPDMQPRP | -0.0618 |
| RRIRVRPPRLPRPRPRPREFPRP | 0.126 |
| RRIRWRPPRLPRPRPRPWPGPRP | 0.217 |
| RRIRPRPPRLPRPRPRPSVQPRP | -0.0553 |
| RRIRNRPPRLPRPRPRPVFGPRP | 0.106 |
| RRIRPRPPRLPRPRPRPCEDPRP | -0.119 |
| RRIRDRPPRLPRPRPRPPRAPRP | 1.1 |
| RRIRMRPPRLPRPRPRPMLFPRP | 0.138 |
| RRIRSRPPRLPRPRPRPDTWPRP | -0.0193 |
| RRIRVRPPRLPRPRPRPYRYPRP | -0.228 |
| RRIRIRPPRLPRPRPRPVWMPRP | 0.11 |
| RRIRTRPPRLPRPRPRPEINPRP | -0.106 |
| RRIRPRPPRLPRPRPRPHLWPRP | 0.181 |
| RRIRDRPPRLPRPRPRPVVQPRP | -0.0248 |
| RRIRMRPPRLPRPRPRPESIPRP | 0.522 |

| Sequence | shrunken log2 fold change |
| --- | --- |
| RRIRNRPPRLPRPRPRPIWHPRP | -0.356 |
| RRIRCRPPRLPRPRPRPKVLPRP | 0.0115 |
| RRIRCRPPRLPRPRPRPDARPRP | -0.0562 |
| RRIRDRPPRLPRPRPRPQLDPRP | 0.207 |
| RRIRARPPRLPRPRPRPMPSPRP | 0.341 |
| RRIRVRPPRLPRPRPRPCYDPRP | 0.0557 |
| RRIRKRPPRLPRPRPRPCWDPRP | 0.0719 |
| RRIRMRPPRLPRPRPRPLYNPRP | -0.335 |
| RRIRGRPPRLPRPRPRPHLKPRP | 0.378 |
| RRIRYRPPRLPRPRPRPHRGPRP | -0.192 |
| RRIRRRPPRLPRPRPRPCFCPRP | 0.104 |
| RRIRERPPRLPRPRPRPLATPRP | 0.133 |
| RRIRLRPPRLPRPRPRPAVMPRP | 0.113 |
| RRIRERPPRLPRPRPRPYQRPRP | -0.876 |
| RRIRQRPPRLPRPRPRPKCQPRP | 0.0473 |
| RRIRHRPPRLPRPRPRPYYCPRP | -0.541 |
| RRIRDRPPRLPRPRPRPGDWPRP | 0.92 |
| RRIRERPPRLPRPRPRPRNQPRP | -0.312 |
| RRIRARPPRLPRPRPRPAGFPRP | 0.365 |
| RRIRQRPPRLPRPRPRPQWNPRP | -0.206 |
| RRIRMRPPRLPRPRPRPNNGPRP | 0.0562 |
| RRIRWRPPRLPRPRPRPAACPRP | 0.0948 |

| Sequence | shrunken log2 fold change |
| --- | --- |
| RRIRLRPPRLPRPRPRPAMMPRP | -0.221 |
| RRIRARPPRLPRPRPRPHVGPRP | 0.34 |
| RRIRFRPPRLPRPRPRPQRVPRP | 0.045 |
| RRIRTRPPRLPRPRPRPGFKPRP | -0.0634 |
| RRIRRRPPRLPRPRPRPTWWPRP | 0.57 |
| RRIRDRPPRLPRPRPRPEHIPRP | -0.193 |
| RRIRTRPPRLPRPRPRPERFPRP | 0.0107 |
| RRIRMRPPRLPRPRPRPNHEPRP | 0.0645 |
| RRIRQRPPRLPRPRPRPRDDPRP | 0.538 |
| RRIRLRPPRLPRPRPRPNEGPRP | 0.00337 |
| RRIRNRPPRLPRPRPRPDAPPRP | 0.185 |
| RRIRGRPPRLPRPRPRPLQGPRP | 0.226 |
| RRIRKRPPRLPRPRPRPKMRPRP | 0.56 |
| RRIRERPPRLPRPRPRPLDEPRP | -0.396 |
| RRIRTRPPRLPRPRPRPLHVPRP | -0.175 |
| RRIRIRPPRLPRPRPRPMADPRP | -0.0382 |
| RRIRTRPPRLPRPRPRPWLSPRP | -0.272 |
| RRIRTRPPRLPRPRPRPNQNPRP | -0.168 |
| RRIRDRPPRLPRPRPRPAHVPRP | -0.0599 |
| RRIRKRPPRLPRPRPRPTFEPRP | 0.312 |
| RRIRFRPPRLPRPRPRPEWCPRP | 0.0522 |
